Laboratory results from patent publication US20160060340A1 (Kyowa Kirin, published 2016).
Positions count from the first letter of the chain named. Names and notes keep the numbering of the source. One block for each binder: values may come before it.

Assays:
FOLR1-mycHis [1] = molecular target: T1, FOLR1-mycHis (human, UniProt P15328 25-233); test: SPR (Biacore), antibody captured by Human Antibody Capture Kit on a CM5 chip, FOLR1-mycHis as analyte (12.3-1000 ng/mL, as in Example 29); affinity relative to ChRA15-7Acc = 100
T1 construct: Secreted from CHO/DG44 cells, purified on Ni-NTA; Residues 1-233 include the native signal peptide; also called non-reducing FOLR1-mycHis; recombinant protein having myc and His tag at the C-terminus of FOLR1 (1-233 amino acids); not shown: myc and His tag at the C-terminus
T1 sequence (P15328 25-233): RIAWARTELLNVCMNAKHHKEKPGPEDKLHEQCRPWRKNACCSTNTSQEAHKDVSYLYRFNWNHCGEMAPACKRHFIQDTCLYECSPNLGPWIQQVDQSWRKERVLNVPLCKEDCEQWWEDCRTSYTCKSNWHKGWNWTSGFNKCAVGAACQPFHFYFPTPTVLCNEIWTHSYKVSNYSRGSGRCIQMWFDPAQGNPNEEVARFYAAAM
Protocol: (§1) The affinities of ChRA15-7Acc antibody and MORAb-003 antibody for FOLR1 were measured by a surface plasmon resonance method. The measurement was carried out in the same manner as in Example 16, except that a Human Antibody Capture Kit (GE Healthcare) was immobilized onto the CM5 chip by amine coupling and FOLR1-mycHis prepared by five-step dilution (12.3, 37, 111, 333, 1000 ng/mL) was applied as an analyte.
(§2) Affinities of HV7LV3-CDRH3-Cys101 modified antibodies for FOLR1 were measured by the surface plasmon resonance method in the same manner as in Example 29.

[2] = molecular target: T2, cynomolgus monkey FOLR1-Fc (cynomolgus monkey; human); test: ELISA, antigen coated at 2 ug/mL, antibody 1.4-1000 ng/mL, goat anti-human kappa-HRP, ABTS, absorbance at 415 nm [d]
T2 construct: Expressed in CHO/Ms704 cells; also called CyFOLR1-Fc; not shown: Human IgG1 Fc (Hinge region and CH2-CH3 region) from pKANTEX93, added to the C-terminus
T2 sequence (chain, as listed by the source): as the sequence (P15328 25-233) above, with I2T, W4R, R37K, A146P, H171Y counted along it
Protocol: (§3) First, each 50 μL/well of FOLR1-Fc, FOLR2-Fc, FOLR3-Fc, and cynomolgus monkey FOLR1-Fc which were prepared at a concentration of 2 μg/mL using PBS was added in a 96-well plate for ELISA and incubated at 4° C. overnight. It was washed with PBS, and then 200 μL/well of 1% BSA/PBS wad added at room temperature for 1 hour for blocking. It was washed with PBS again, and each 50 μL/well of HuRA15-7CTDF antibody, ChRA15-7DF antibody, MORAb-003DF antibody, and defucosylated anti-DNP human IgG1 (DNPDF) antibody as a negative control which were prepared by seven-step dilution (1.4, 4.1, 12, 37, 111, 333, 1000 ng/mL) in 1% BSA/PBS was added, and allowed to react at room temperature for 1 hour.
(§4) Each well was washed with 0.05% tween20/PBS, and then 50 μL/well of Goat anti-Human kappa-HRP (Southern Biotech) which was diluted 2000-fold using 1% BSA/PBS was added and allowed to react at room temperature for 1 hour. Each well was washed with PBS, and then 50 μL/well of ABTS substrate solution was added, and allowed to react at room temperature. After sufficient color development was confirmed, 5% SDS solution was added to terminate the reaction, and absorbance at 415 nm was measured.

FOLR1-mycHis [3] = molecular target: T1, FOLR1-mycHis; test: SPR as in Example 29, antibody captured, FOLR1-mycHis as analyte
Protocol: as §1, §2

FOLR1-mycHis [4] = molecular target: T1, FOLR1-mycHis; test: surface plasmon resonance as in Example 29
Protocol: as §1, §2

[5] = molecular target: T2, cynomolgus monkey FOLR1-Fc; test: ELISA, antigen coated at 2 ug/mL, antibody 1.4-1000 ng/mL, goat anti-human kappa-HRP, ABTS, absorbance at 415 nm [c]
Protocol: as §3, §4

FOLR1-mycHis [6] = molecular target: T1, FOLR1-mycHis; test: SPR (Biacore T100), antibody captured with Human Antibody Capture Kit, FOLR1-mycHis as analyte, 1:1 binding model
Protocol: The affinity was analyzed from association constant (Ka) and dissociation constant (Kd) by Single-cycle kinetics. Kinetic constants (ka, kd, KD) were calculated by 1:1 binding model using a Biacore T-100 Evaluation software (GE Healthcare).
as §1

B1: C101A (antibody, V domains shown)
VH: EVQLVESGGGLVQPGGSLRLSCAASGFTFTDFYMNWVRQPPGKAPEWLGFIRNKANGYTTEFNPSVKGRFTISRDNSKNSLYLQMNSLKTEDTATYYCARALYGYAYYYVMDAWGQGTLVTVSS
VL: DIQMTQSPSSLSASLGDRVTITCRTSEDIFRNLAWYQQKPGKAPKLLIYDTNRLADGVPSRFSGSGSGTDYTLTISSLQPEDFATYFCQQYDNYPLTFGQGTKLEIK
notes: also called HV7LV3-CDRH3-Cys101 modified antibody C101A; antibody in which Cys101 was modified with Ala
binding result (FOLR1-mycHis [1]): binds

B2: HuRA15-7CTDF antibody (antibody, human IgG1, V domains shown)
VH: B1 VH with A101T
VL: B1 VL
notes: defucosylated, made in CHO/Ms704 cells; also called defucosylated HuRA15-7CT
binding result [2]: binds

B4: HV7LV3-CDRH3-Cys101 modified antibody C101T (HuRA15-7CT) (antibody, human IgG1, V domains shown)
VH: B1 VH with A101T
VL: B1 VL
modifications: Expressed in FUT8-knockout CHO-K1 cells (Fc glycan without core fucose); not carried by the letters.
notes: Human IgG1 kappa constant regions of pKANTEX93; transiently made in FUT8 double-knockout CHO-K1 cells; Same vector as HuRA15-7CTDF; also called antibody in which Cys101 was modified with Thr
affinity as percent of the affinity of ChRA15-7Acc antibody (FOLR1-mycHis [4]): ≥ 50 % of the affinity of ChRA15-7Acc antibody
affinity as percent of the affinity of ChRA15-7Acc antibody (FOLR1-mycHis [3]): 88%

B5: HV7LV3-CDRH3-Cys101 modified antibody C101V (antibody, human IgG1, V domains shown)
VH: B1 VH with A101V
VL: B1 VL
notes: Human IgG1 kappa constant regions of pKANTEX93; transiently made in FUT8 double-knockout CHO-K1 cells; also called antibody in which Cys101 was modified with Val
affinity as percent of the affinity of ChRA15-7Acc antibody (FOLR1-mycHis [4]): ≥ 50 % of the affinity of ChRA15-7Acc antibody
affinity as percent of the affinity of ChRA15-7Acc antibody (FOLR1-mycHis [3]): 55%

B6: HV7LV3-CDRH3-Cys101 modified antibody C101I (antibody, human IgG1, V domains shown)
VH: B1 VH with A101I
VL: B1 VL
notes: Human IgG1 kappa constant regions of pKANTEX93; transiently made in FUT8 double-knockout CHO-K1 cells; also called antibody in which Cys101 was modified with Ile
affinity as percent of the affinity of ChRA15-7Acc antibody (FOLR1-mycHis [4]): ≥ 50 % of the affinity of ChRA15-7Acc antibody
affinity as percent of the affinity of ChRA15-7Acc antibody (FOLR1-mycHis [3]): 73%

B7: HV7LV3-CDRH3-Cys101 modified antibody C101F (antibody, human IgG1, V domains shown)
VH: B1 VH with A101F
VL: B1 VL
notes: Human IgG1 kappa constant regions of pKANTEX93; transiently made in FUT8 double-knockout CHO-K1 cells; also called antibody in which Cys101 was modified with Phe
affinity as percent of the affinity of ChRA15-7Acc antibody (FOLR1-mycHis [4]): ≥ 50 % of the affinity of ChRA15-7Acc antibody
affinity as percent of the affinity of ChRA15-7Acc antibody (FOLR1-mycHis [3]): 80%

B9: HV7LV3-CDRH3-Cys101 modified antibody C101M (antibody, human IgG1, V domains shown)
VH: B1 VH with A101M
VL: B1 VL
notes: Human IgG1 kappa constant regions of pKANTEX93; transiently made in FUT8 double-knockout CHO-K1 cells; also called antibody in which Cys101 was modified with Met
affinity as percent of the affinity of ChRA15-7Acc antibody (FOLR1-mycHis [4]): ≥ 50 % of the affinity of ChRA15-7Acc antibody
affinity as percent of the affinity of ChRA15-7Acc antibody (FOLR1-mycHis [3]): 59%

B11: HV7LV3-CDRH3-Cys101 modified antibody C101Q (antibody, human IgG1, V domains shown)
VH: B1 VH with A101Q
VL: B1 VL
notes: Human IgG1 kappa constant regions of pKANTEX93; transiently made in FUT8 double-knockout CHO-K1 cells; also called antibody in which Cys101 was modified with Gln
affinity as percent of the affinity of ChRA15-7Acc antibody (FOLR1-mycHis [4]): ≥ 50 % of the affinity of ChRA15-7Acc antibody
affinity as percent of the affinity of ChRA15-7Acc antibody (FOLR1-mycHis [3]): 64%

B12: C101G (antibody, V domains shown)
VH: B1 VH with A101G
VL: B1 VL
notes: also called HV7LV3-CDRH3-Cys101 modified antibody C101G; antibody in which Cys101 was modified with Gly
binding result (FOLR1-mycHis [1]): binds

B16: MORAb-003 antibody (antibody, V domains shown)
VH: EVQLVESGGGVVQPGRSLRLSCSASGFTFSGYGLSWVRQAPGKGLEWVAMISSGGSYTYYADSVKGRFAISRDNAKNTLFLQMDSLRPEDTGVYFCARHGDDPAWFAYWGQGTPVTVSS
VL: DIQLTQSPSSLSASVGDRVTITCSVSSSISSNNLHWYQQKPGKAPKPWIYGTSNLASGVPSRFSGSGSGTDYTFTISSLQPEDIATYYCQQWSSYPYMYTFGQGTKVEIKR
Kd (FOLR1-mycHis [6]): 57 nM
koff (FOLR1-mycHis [6]): 0.0259 s⁻¹

Continued, values first:

affinity as percent of the affinity of ChRA15-7Acc (FOLR1-mycHis [3]): ~70%
B3: modified humanized RA15-7 antibody HV10LV6 (antibody, human IgG1, V domains shown)
VH: B1 VH with L18M, V37I, P41A, A101C
VL: B1 VL with A43S, K45Q, T85G
notes: Human IgG1 kappa constant regions of pKANTEX93; transiently made in FUT8 double-knockout CHO-K1 cells

affinity as percent of the affinity of ChRA15-7Acc (FOLR1-mycHis [3]): ~70%
B8: modified humanized RA15-7 antibody HV10LV4 (antibody, human IgG1, V domains shown)
VH: B1 VH with L18M, V37I, P41A, A101C
VL: B1 VL with K45Q
notes: as for B3

binding result (FOLR1-mycHis [1]): no binding
B10: C101P (antibody, V domains shown)
VH: B1 VH with A101P
VL: B1 VL
notes: also called HV7LV3-CDRH3-Cys101 modified antibody C101P; antibody in which Cys101 was modified with Pro

affinity as percent of the affinity of ChRA15-7Acc (FOLR1-mycHis [3]): ~70%
B13: modified humanized RA15-7 antibody HV10LV3 (antibody, human IgG1, V domains shown)
VH: B1 VH with L18M, V37I, P41A, A101C
VL: B1 VL
notes: as for B3

affinity as percent of the affinity of ChRA15-7Acc (FOLR1-mycHis [3]): ~70%
B14: modified humanized RA15-7 antibody HV10LV2 (antibody, human IgG1, V domains shown)
VH: B1 VH with L18M, V37I, P41A, A101C
VL: B1 VL with L15V, K45Q, F87Y
notes: as for B3

binding result [5]: binds
B15: ChRA15-7DF antibody (antibody, human IgG1, V domains shown)
VH: EVKLLESGGGLVQPGGSMRLSCAASGFTFTDFYMNWIRQPAGKAPEWLGFIRNKANGYTTEFNPSVKGRFAISRDNTQNMLYLQMNTLRAEDTATYYCARCLYGYAYYYVMDAWGQGTSVTVSS
VL: DIQMTQSPASLSASLGETVTIECRTSEDIFRNLAWYQQRPGNSPQLLIYDTNRLADGVPSRFSGSGSGTQYSLKINSLQSEDVAGYFCQQYDNYPLTFGSGTKLEIK
notes: sugar chain without fucose, made in CHO/Ms704 cells; also called defucosylated rat/human chimeric RA15-7
